Assay [1] addresses Myelin Basic Protein (Sigma).
Assay [2] has as its target transcription factor GLI, the mammalian homologue of the Drosophila cubitus interruptus (Ci).

Amount of 32P incorporated into MBP, in vitro kinase assay on anti-HA immunoprecipitates (times higher compared to controls) and GLI activity, luciferase reporter p9XGliLuc in C3H10T1/2 cells data for three substances are collected here from US6022708.

Regarding “fused KD (kinase domain of human fused alone), HA epitope tagged (enzyme)”, the amount of 32P incorporated into MBP, in vitro kinase assay on anti-HA immunoprecipitates (times higher compared to controls) in assay [1] was found to be 3.

Regarding “human fused (wild type, full length), HA epitope tagged”, in assay [2], the GLI activity, luciferase reporter p9XGliLuc in C3H10T1/2 cells came out at 9.5 fold.

“human fused (wild type, full length), HA epitope tagged (enzyme)” returned an amount of 32P incorporated into MBP, in vitro kinase assay on anti-HA immunoprecipitates (times higher compared to controls) in assay [1] of 2.
